Where no end group is shown, it is not given here.

Data on one molecule can be found in patent US20240110004 (published 2024).

The test concerns the target VCP (UniProt P55072). Kind of test: BLI, VCP immobilized on anti-HIS sensor, analyte in Tris pH 8.4, multivalent.

Sequence of VCP (P55072 2-806): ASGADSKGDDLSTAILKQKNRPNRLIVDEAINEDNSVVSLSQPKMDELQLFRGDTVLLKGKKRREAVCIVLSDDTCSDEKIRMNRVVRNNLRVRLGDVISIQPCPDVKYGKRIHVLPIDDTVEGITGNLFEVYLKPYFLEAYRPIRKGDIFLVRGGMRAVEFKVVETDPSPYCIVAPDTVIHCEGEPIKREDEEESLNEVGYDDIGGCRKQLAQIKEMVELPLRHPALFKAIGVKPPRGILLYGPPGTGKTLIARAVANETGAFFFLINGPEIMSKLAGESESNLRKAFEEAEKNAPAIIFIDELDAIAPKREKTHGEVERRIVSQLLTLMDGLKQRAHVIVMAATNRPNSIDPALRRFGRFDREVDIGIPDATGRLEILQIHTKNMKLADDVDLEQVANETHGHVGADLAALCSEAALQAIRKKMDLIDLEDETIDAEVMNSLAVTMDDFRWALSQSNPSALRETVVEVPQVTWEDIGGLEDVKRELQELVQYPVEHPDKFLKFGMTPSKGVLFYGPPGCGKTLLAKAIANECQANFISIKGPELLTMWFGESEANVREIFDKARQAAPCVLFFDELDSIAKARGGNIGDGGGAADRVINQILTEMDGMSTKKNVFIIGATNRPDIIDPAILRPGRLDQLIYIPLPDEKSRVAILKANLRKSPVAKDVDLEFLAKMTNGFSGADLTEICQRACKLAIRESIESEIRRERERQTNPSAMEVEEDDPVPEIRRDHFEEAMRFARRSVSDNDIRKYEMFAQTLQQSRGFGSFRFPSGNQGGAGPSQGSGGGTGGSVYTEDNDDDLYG

On to HVLVMSATRR (not fully specified (N-terminus); also: multivalent polymer conjugate) [P1], for which binding was characterised by a dissociation constant (Kd) of 92 nM.
